# Source: the supplement of paper PMC9732359
# ± gives the uncertainty stated by the source.
# Test: protein stability index of a GFP-peptide fusion (yeast GPS) (PSI 1-4); higher = more stable; sorted into four equal gates, so the index is relative within each strain
# Outline: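 Tiled yeast protein peptides of 17 residues were each joined downstream of GFP, on plasmids that also express Cherry. The pooled library was maintained in yeast, and mid-log cultures in leucine-free medium were sorted into four equal gates on the GFP/Cherry ratio. Plasmids from every gate were amplified by PCR and sequenced on Illumina, with barcodes linking reads to strains. The protein stability index of a peptide is its gate-number-weighted read frequency summed over the gates.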
Sequence,protein stability index (pdr5∆),protein stability index (san1∆),protein stability index (doa10∆),protein stability index (ubr1∆)
QEQYQTNTFEGSGNNNE [SNU114],3.59 ± 0.23,3.3 ± 0.13,–,–
QFLEQGLSIHPTQITQY [SRP68],2.22 ± 0.076,2.27 ± 0.062,2.17 ± 0.058,2.17 ± 0.067
QFNEFIQIMANIDQEGS [PGD1],2.37 ± 0.067,2.33 ± 0.072,2.29 ± 0.073,2.54 ± 0.049
QFQKARNNVMLLIATNL [SRB8],1.81 ± 0.1,2.24 ± 0.13,1.74 ± 0.11,1.93 ± 0.071
QFVPELKEFTAKLRKEL [FAS2],1.61 ± 0.043,1.53 ± 0.1,1.53 ± 0.061,1.57 ± 0.026
QGVYGAVYETLISRMIF [BRR2],1.81 ± 0.093,1.36 ± 0.15,2.46 ± 0.11,1.67 ± 0.045
QHIKVFKLDKDTSNWEL [YGL100W/SEH1],3.15 ± 0.12,3.2 ± 0.16,3.43 ± 0.15,3.62 ± 0.29
QHQEEPLLSLDVTPISM [RPN4],2.97 ± 0.16,3.07 ± 0.086,2.77 ± 0.2,2.65 ± 0.23
QHYLDTATAPRLFDKLK [QCR6],3.04 ± 0.045,2.84 ± 0.061,2.96 ± 0.055,2.76 ± 0.091
QIAFDLVSSASQQLLEI [RPN2],2.17 ± 0.063,1.66 ± 0.11,2.22 ± 0.068,1.69 ± 0.072
QIFCVFSGKGVHKLRHY [GRR1],2.88 ± 0.061,3.09 ± 0.066,2.67 ± 0.068,2.76 ± 0.053
QIFKVAGENAPSIVFID [RPT2],1.2 ± 0.059,1.31 ± 0.13,1.84 ± 0.098,1.33 ± 0.066
QILENYNALFQQNIKFR [YJL039C/NUP192],2.79 ± 0.065,2.86 ± 0.036,2.73 ± 0.075,3.04 ± 0.054
QIPTVSSPLGFEETKLS [SIR4],3.05 ± 0.17,2.63 ± 0.14,3.06 ± 0.12,2.9 ± 0.081
QIQLAESELSLLEETQA [SMC4],3.25 ± 0.063,2.71 ± 0.095,2.69 ± 0.066,3.05 ± 0.052
QIRSADEPMTTFYKCVN [RPC11],2.54 ± 0.078,2.2 ± 0.14,2.26 ± 0.2,2.77 ± 0.085
QKCFKLTHRLGGDTCSS [POP1],1.85 ± 0.056,2.55 ± 0.068,2.27 ± 0.059,2.51 ± 0.054
QKGITSYAVSPYAQKPL [QCR8],3.05 ± 0.14,2.92 ± 0.063,2.92 ± 0.13,3.13 ± 0.089
QKNDTAAFKDIAKRQFK [RRP40],3.33 ± 0.12,2.76 ± 0.068,2.95 ± 0.093,3.35 ± 0.058
QKNMNDLLRSQLTSLEK [YIL149C/MLP2],2.17 ± 0.056,1.96 ± 0.075,2.89 ± 0.073,2.35 ± 0.05
QKRIENGGNSVITLAEY [SRP68],2.89 ± 0.081,2.9 ± 0.069,2.47 ± 0.076,3.22 ± 0.1
QKRNAHGYFLQDKEKID [ITC1],3.38 ± 0.071,3.28 ± 0.048,3.32 ± 0.098,3.42 ± 0.056
QKVSENFEAVFERLVPR [SMC3],–,–,2.53 ± 0.28,–
QLDAYGEKKVGSNGELF [SWP82],3.29 ± 0.089,3.62 ± 0.071,3.28 ± 0.13,3.32 ± 0.12
QLDLCKLYFQLFLNTGC [SRP68],1.4 ± 0.042,1.45 ± 0.092,2.01 ± 0.038,1.7 ± 0.037
QLDLTGIFLHGKIPTLK [PRP8],1.43 ± 0.058,1.58 ± 0.089,2.39 ± 0.078,1.36 ± 0.046
QLIDQFEWDISNSDNCP [SNF5],3.18 ± 0.12,3.21 ± 0.058,3.02 ± 0.092,3.27 ± 0.065

Sequence,protein stability index (pdr5∆),protein stability index (san1∆),protein stability index (doa10∆),protein stability index (ubr1∆)
QLKAEEKKILNQFLKIK [SMC1],3.19 ± 0.1,2.84 ± 0.09,2.8 ± 0.045,2.99 ± 0.078
QLKMVNERELNVFARLS [RPC82],2 ± 0.2,–,–,2.95 ± 0.12
QLKNGLLEKYNTNELKE [MTR3],2.69 ± 0.056,3.08 ± 0.05,2.97 ± 0.055,2.65 ± 0.045
QLLMGDIPELSFFHQSN [RPN3],2.2 ± 0.054,2.39 ± 0.077,2.43 ± 0.067,2.62 ± 0.039
QLLNGQKIVVVRAEELN [RPL16A],1.31 ± 0.051,1.24 ± 0.13,1.28 ± 0.049,1.21 ± 0.056
QLNLNNLTPANILNMSM [PGD1],3.19 ± 0.07,2.75 ± 0.067,3.04 ± 0.1,3.02 ± 0.045
QLTSLEKDCSLRAIEKN [YIL149C/MLP2],2.8 ± 0.064,2.98 ± 0.058,2.58 ± 0.068,3.06 ± 0.047
QLVLRGLLSQAIGCIER [YJR042W/NUP85],2.15 ± 0.073,1.71 ± 0.099,1.98 ± 0.11,2.3 ± 0.076
QLYKRDPVSGAILVPMT [YJR042W/NUP85],1.75 ± 0.24,2.6 ± 0.099,1.95 ± 0.18,2.67 ± 0.13
QMIQQRHQQLLRSRLQQ [SNF5],2.14 ± 0.15,2.71 ± 0.15,2.08 ± 0.12,3.02 ± 0.12
QNGQQPPTTSNLIIFLY [YML103C/NUP188],2.78 ± 0.04,2.94 ± 0.034,2.83 ± 0.05,3.06 ± 0.035
QNIILRSTMMKFLKIAS [RPN3],2.42 ± 0.067,2.86 ± 0.077,2.15 ± 0.072,3.03 ± 0.048
QNKEIKAERVEDQKVVD [RPL6A],3.44 ± 0.066,3.33 ± 0.041,3.4 ± 0.067,3.35 ± 0.052
QNPLNKSQNTALPSTHK [SIR4],2.88 ± 0.049,2.33 ± 0.058,2.62 ± 0.048,2.76 ± 0.037
QNTSNMNAGGLFGAKPQ [YGR119C/NUP57],3.05 ± 0.063,3.34 ± 0.052,2.08 ± 0.055,2.17 ± 0.076
QNTVPNVLNQINQIFSP [GAL11],2.5 ± 0.033,2.4 ± 0.038,2.63 ± 0.039,2.44 ± 0.032
QNVISLGSLTVEDYLSS [RPC82],2.84 ± 0.078,2.06 ± 0.12,2.83 ± 0.095,3 ± 0.074
QPDANKKKRSRTSATRE [ISW2],3.38 ± 0.079,3.5 ± 0.057,3.46 ± 0.14,3.16 ± 0.1
QPDENTKEMDEVEEDDE [SWI3],3.49 ± 0.15,3.53 ± 0.092,3.22 ± 0.17,3.43 ± 0.054
QPHIFNNPKVKTSKRTK [RPS11A],2.81 ± 0.061,2.98 ± 0.091,2.95 ± 0.052,2.36 ± 0.031
QPIVTGTSVISMKYDNG [PRE4],2.69 ± 0.23,1.93 ± 0.15,2.1 ± 0.25,2 ± 0.2
QPKDLRAKKTRALRRAL [RPL35A],–,–,–,3.1 ± 0.15
QPSDVMFNDLNSMDISM [MED2],2.99 ± 0.053,3.11 ± 0.043,2.63 ± 0.043,2.76 ± 0.048
QPTGLLKGLNGFPSAPQ [YMR153W/NUP53],3.3 ± 0.12,3.25 ± 0.11,3.39 ± 0.14,3.18 ± 0.1
QPVNINLDSSITQDGKF [YMR129W/POM152],3.18 ± 0.084,3.07 ± 0.048,2.92 ± 0.098,3.04 ± 0.059
QQIPLLCYMAPMTVKLV [POP3],1.57 ± 0.047,1.78 ± 0.072,1.63 ± 0.052,1.53 ± 0.057
